# From patent publication US20100227805A1
# Legend:
# Experiment in all cases: cell-based or functional assay
# [1] = biological target: murine MIP-1β (CCL4) (murine) (UniProt P14097)
# [2] = biological target: murine RANTES (CCL5) (murine) (UniProt P30882)
# [3] = biological target: human MIP-1α (CCL3) (human) (UniProt P10147)
# human MIP-1α (CCL3) (human), sequence (P10147 27-92 limits assumed): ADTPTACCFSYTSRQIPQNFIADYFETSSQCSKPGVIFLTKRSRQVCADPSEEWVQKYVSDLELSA
# murine MIP-1β (CCL4) (murine), sequence (P14097 24-92 limits assumed): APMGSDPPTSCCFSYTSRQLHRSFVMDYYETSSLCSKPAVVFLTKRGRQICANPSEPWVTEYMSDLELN
# murine RANTES (CCL5) (murine), sequence (P30882 24-91 limits assumed): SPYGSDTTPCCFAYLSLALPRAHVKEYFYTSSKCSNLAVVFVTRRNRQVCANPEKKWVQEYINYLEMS
inhibition of chemokine-induced THP-1 cell migration (transwell chemotaxis assay) [1] [%],inhibition of chemokine-induced THP-1 cell migration (transwell chemotaxis assay) [2] [%],inhibition of chemokine-induced THP-1 cell migration (transwell chemotaxis assay) [3] [%],Substance
50,50,–,mCCR5(EC3)-IgG (Fc fusion)
–,–,50,hCCR5(EC2)-IgG (Fc fusion)
